One substance from US8673307 can be followed below.

Assay [1] addresses YU2-gp120 (HIV-1 (YU2)) (UniProt P35961). Kind of assay: competition ELISA on gp120; unlabeled b12 against biotin labeled b12 (self-inhibition). A general note: In an ELISA, binding on a coated surface is turned into a signal by an enzyme label.
The target in assay [2] is YU2-gp140 trimer (artificially trimerized gp140 protein) (HIV-1 (YU2)) (UniProt P35961). Briefly: SPR (Biacore T100), antibody immobilized on CM5 chip, gp140 trimer injected, 1:1 model. On the technique in general: Surface plasmon resonance follows binding to a sensor surface in real time, without labels.

As for b12 (antibody), the IC50 in assay [1] was 5 µg/mL. In assay [2], the Kd was determined as 12 nM.

As a reminder, the IC50 is the point on the concentration scale where inhibition reaches its midpoint. A lower IC50 goes with higher potency. One may read the Kd as the equilibrium constant for the complex coming apart.
